Experiments:
alpha subunit (GPIIb) = target: T1, alpha subunit (GPIIb) (Homo sapiens, UniProt P05106+P08514); assay: Chemical crosslinking of 125I-Fn-7 to platelets with BS3, SDS-PAGE and autoradiography; type: binding; settings: thrombin-stimulated platelets, 20 μM peptide, 45 min at 22° C., BS3 0.2 mM
T1 construct: The radiolabeled peptide was then added to 6×10^8 cells/ml stimulated or nonstimulated platelets; endogenous in cells; host or cells: human platelets (thrombin-stimulated), gel-filtered from fresh blood

beta subunit (GPIIIa) = target: T2, beta subunit (GPIIIa) (Homo sapiens, UniProt P05106+P08514); assay: as above; type: binding; settings: thrombin-stimulated platelets, 20 μM peptide, 45 min at 22° C., BS3 0.2 mM
T2 construct: endogenous in cells; host or cells: human platelets (thrombin-stimulated or nonstimulated), gel-filtered from fresh blood
Method: FIG. 2 illustrates the results of the crosslinking of an RGD peptide to discrete sites in the beta subunit (GPIIIa) of an Integrin adhesion receptor. The ^125 I-labeled RGD peptide, Fn-7 (20 μM), was bound to platelet (6×10^8 /ml) for 45 min at 22° C., and crosslinked with BS^3 (0.2 mM). The fragmentation patterns after proteolysis were analyzed by SDS-PAGE [Laemmli, Nature. 227:680 (1970)] and autoradiography. […] Lanes 2-7, GPIIIa:Fn-7 bands were excised from gels, subjected to proteolysis and then analyzed by SDS-PAGE (15% gels, reducing conditions). For lanes 2-5, GPIIIA:Fn-7 bands were excised and digestions with V-8 protease were performed within the gel slices as described in Cleveland et al., J. Biol. Chem. 252:1102 (1977).
Platelets were isolated from fresh human blood collected into acid/citrate/dextrose by differential centrifugation followed by gel filtration on Sepharose 2B in divalent ion-free Tyrode's buffer, pH 7.3, containing 0.1% bovine serum albumin. See, Marguerie et al., J. Biol. Chem. 225:154-161 (1980). […]
The cell-bound ligand was recovered by centrifugation through 20% sucrose, and the cells were extracted in PBS containing 1% Nonidet P40 and 10 mM N-ethylmaleimide (Sigma). […] The cross-linked samples were analyzed by electrophoresis (SDS-PAGE) on polyacrylamide vertical slab gels in the buffer system of Laemmli, Nature, […] (1970). […]

Q: “KYGRRGDS [Fn-7, RGD-peptide with a lysine to facilitate crosslinking and a tyrosine for radioiodination]” was tested. Which “crosslinking of 125I-Fn-7 to the alpha subunit (GPIIb)” value (alpha subunit (GPIIb)) did it give?
A: more minor crosslinking

Q: And the “crosslinking of 125I-Fn-7 to the beta subunit (GPIIIa)” value (beta subunit (GPIIIa))?
A: predominance
